The target in this series is T1, CasEnd-17 (synthetic construct).
T1 chain: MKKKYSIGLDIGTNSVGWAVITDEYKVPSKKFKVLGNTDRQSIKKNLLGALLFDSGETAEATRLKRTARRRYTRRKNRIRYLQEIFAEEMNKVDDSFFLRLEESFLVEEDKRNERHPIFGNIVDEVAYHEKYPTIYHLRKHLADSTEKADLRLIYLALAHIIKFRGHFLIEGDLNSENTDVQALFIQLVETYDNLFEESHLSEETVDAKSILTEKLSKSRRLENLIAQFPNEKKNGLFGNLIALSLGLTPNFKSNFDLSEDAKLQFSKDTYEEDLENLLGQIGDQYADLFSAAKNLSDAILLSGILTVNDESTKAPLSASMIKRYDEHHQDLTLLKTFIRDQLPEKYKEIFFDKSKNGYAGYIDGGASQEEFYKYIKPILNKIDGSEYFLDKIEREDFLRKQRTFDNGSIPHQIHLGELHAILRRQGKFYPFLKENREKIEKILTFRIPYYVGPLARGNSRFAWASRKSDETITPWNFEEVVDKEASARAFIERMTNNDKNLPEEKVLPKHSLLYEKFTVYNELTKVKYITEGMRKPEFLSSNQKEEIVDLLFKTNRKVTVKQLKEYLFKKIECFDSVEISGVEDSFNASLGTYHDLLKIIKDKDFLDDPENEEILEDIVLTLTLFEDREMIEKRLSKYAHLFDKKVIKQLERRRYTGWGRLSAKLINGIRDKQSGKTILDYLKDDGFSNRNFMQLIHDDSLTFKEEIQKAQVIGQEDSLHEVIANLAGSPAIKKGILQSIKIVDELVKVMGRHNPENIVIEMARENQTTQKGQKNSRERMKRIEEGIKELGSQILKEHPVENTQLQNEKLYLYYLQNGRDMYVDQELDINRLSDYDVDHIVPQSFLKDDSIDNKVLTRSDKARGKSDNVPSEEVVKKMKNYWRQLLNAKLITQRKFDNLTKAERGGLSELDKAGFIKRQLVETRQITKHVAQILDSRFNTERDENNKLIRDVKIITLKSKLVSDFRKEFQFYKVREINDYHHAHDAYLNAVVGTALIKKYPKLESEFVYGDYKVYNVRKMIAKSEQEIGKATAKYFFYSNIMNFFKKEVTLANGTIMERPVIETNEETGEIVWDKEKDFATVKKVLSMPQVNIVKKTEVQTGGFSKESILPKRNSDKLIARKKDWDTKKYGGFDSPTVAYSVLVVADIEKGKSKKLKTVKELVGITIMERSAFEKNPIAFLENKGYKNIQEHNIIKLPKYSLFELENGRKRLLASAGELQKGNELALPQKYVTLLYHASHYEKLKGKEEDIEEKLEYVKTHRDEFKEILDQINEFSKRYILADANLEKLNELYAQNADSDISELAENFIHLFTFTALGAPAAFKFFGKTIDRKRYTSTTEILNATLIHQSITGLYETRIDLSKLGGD
The series can be described thus: cell_activity; +++; HEK293T; PAM not stated. Summed up:
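BFP-to-GFP conversion via reverse transcriptase fusion with each Cas endonuclease plus template RNA: 200 ng of each plasmid nucleofected into 250,000 BFP-expressing HEK293T cells (program DS-150). Percent GFP+ cells by flow cytometry at day 4 measured editing.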

B1: BFP-to-GFP template RNA ; BFP reporter protospacer (ssRNA ; dsDNA)
RNA: GCCGAAGCACUGCACGCCGUGUUUUAGAGCUAGAAAUAGCAAGUUAAAAUAAGGCUAGUCCGUUAUCAACUUGAAAAAGUGGCACCGAGUCGGUGCACCCUGACGUACGGCGUGCAGUGCUU
DNA 1: GCCGAAGCACTGCACGCCGT
DNA 2: ACGGCGTGCAGTGCTTCGGC
As for B1, the activity is ≥ 100 % of reference.

(Values after patent US20250092426, “CAS ENDONUCLEASES AND RELATED METHODS” (Flagship Pioneering Innovations VII, LLC, published 2025).)
